Tests used:
[1] = substrate: Cc1cc(=O)oc2cc(NC(=O)[C@H](CCCNC(=N)N)NC(=O)[C@@H](N)CCCNC(=N)N)ccc12; test: purified protein, by the assay type; details: pH 8.0; 26.0 °C
[2] = substrate: N=C(N)NCCC[C@H](NC(=O)[C@@H](N)CCCNC(=N)N)C(=O)Nc1ccc2ccccc2c1; test: purified protein, by the assay type; details: pH 8.0; 26.0 °C

B1: Full length PgDPP III (1–886 aa) (Porphyromonas gingivalis W83) (protein)
chain: MTKETTQHRSGERIARFADIEVLSYRADLFGTLTPKQRMLCYHLSEAALRGRDITTIQNCRYNLWVRSLMERIYTHLSKSERTDDFALLEEYLFCIWFANGIHHHYSGAKFIARFSPGFLRAALREAGVELEPEEQVLLERVLYDTDFLPKQTEQSGEEDIIKASSVNFYAPGITRAEAESHYKNLIEALPENEKSCPPSFGLNTRLIRSTSGELKDEVCCIDGLYGPAIEAVVASLEAAIPYTENEEQAACIRLLCDYYRTGDIRLYDRFCIRWVENNRTRIDFINGFTEVYADPIGIHGSWEGLVHMQDEEAGRRTRIISEHAGWFEAHSPIDARFRKKNPHGISATVVNVLTIAGDSYPATPIGINLPNADWIRAEHGSKSVTIDNITDAYNHAARGTGLYEEFIPDEEVRRHVELHADLTDSLHTDLHECLGHGSGQLLPGVPGDALGEHASTLEETRADLFALYFLADPKMIELGLLTDPDAYKANYYKYMLNGLMTQLVRIKRGEEIEEAHMRNRALIARYVLEHAERPGAMSLVCEEGKTALVIKDYEAVRAIIAGLLTEVQRIKSEGDYTAGKALVERYAVHVDPLLHEEVLTRYAKLDIAPYKGFVNPRLRPVYNSEGRLTDATIEYTEGYAEQMLRYSAEYSFLPTDSPLLQEARRLRSHLRRAMDGVLSASMREKGLHYGINFGVTREHLLRLARTADASAPLADYLWRRDVRETKILATMIFPAEELTHEQATRLLREADNVELREQLTANLLERMPEAIRSIGRWIESKETTPDMMTGVLTLAARLFTRGIFPEDVPAEKLLTLAILHLSDEEQKAELRRASALLLKRYGRGSAERTKKVLCLLPESSQDTAPVLYELCEDIRFELDFYPKDE
Km [1]: 2.56 ± 0.32 µM | kcat [1]: 0.29 ± 0.11 s⁻¹ | kcat/Km [1]: 113000 M⁻¹ s⁻¹ | Km [2]: 0.97 ± 0.16 µM | kcat [2]: 0.75 ± 0.13 s⁻¹ | kcat/Km [2]: 773000 M⁻¹ s⁻¹

Source: PMC5708649, “A novel Porphyromonas gingivalis enzyme: An atypical dipeptidyl peptidase III with an ARM repeat domain” (PLoS ONE, 2017)
